This note sets out measurements from paper PMC4161475.

This assay concerns the target G-actin (rabbit skeletal muscle actin, monomeric) (rabbit) (UniProt P68135). Put plainly: ELISA; solid-phase assay: wells coated with 5 µM G-actin in PBS, 5 µM protein added, detected with anti-EhCoactosin antibody; in the presence of Ca2+ (2 mM) or EGTA (5 mM).

Consider “EhCoactosin with the C-terminal 14 residues deleted (domain or fragment)”, for which the percent decrease in binding against WT came to 33%.
